Drawing on the RNAGym collection of RNA variant scans (doi:10.7554/elife.80360), this text covers self-cleavage for 32 variants.

B1: HDV Ribozyme (parent)
chain: GGCCGGCAUGGUCCCAGCCUCCUCGCUGGCGCCGGCUGGGCAACAUUCCGAGGGGACCGUCCCCUCGGUAAUGGCGAAUGGGACCCA

The data set covers variants of B1. Nature of the data set: self-cleavage, relative activity (ratio to wild type); higher = more cleavage; co-transcriptional.
Regarding GGCCGGCAUGGUCCCAGCCCCCUCGCUGGCGCCGGCUGGGCAACAUUACGAGGGGACCGUCCCCUCGGUAAUGGCGAAUGGGACCCA, the self-cleavage was 0.341.
As for AGCCGGCAUGGUCCCAGCCUCCUCGCUGGCGCCGGCUGGGCAACAUUCCGAGGGGACCGUCCCCUCGGUAAUGGCGAAUGGUACCCA, the self-cleavage worked out at 0.095.
Turning to GGCCGGCAUGGUCCCAGCCUCCUCGCUGGCGCCGGCUGGGCAACAUUCCGAGGGGUCCUUCCCCUCGGUAAUGGCGAAUGGGACCCA, the self-cleavage amounted to 1.08.
Consider GGCCGGCAUGGUCCCAGCCUCCUCGCUGGCGCCGGCUGAGCAACAUUCCGAGGGGACCGUCACCUCGGUAAUGGCGAAUGGGACCCA, for which the self-cleavage was 0.554.
On to GGCUGGCAUGGUCCCAGCCUCCUCGCAGGCGCCGGCUGGGCAACAUUCCGAGGGGACCGUCCCCUCGGUAAUGGCGAAUGGGACCCA, for which the self-cleavage was 0.246.
In the case of GGCCGGCAUGGUCCCAGCCUCCUCGCUGGCGCCGGCUGGGCAACAUUCCGAGGGGACCGUCCCCUCUGUAAAGGCGAAUGGGACCCA it was 0.665; in that of GACCGGCAUGGUCCCAGCCUCCUCGCUGGCGCCGGCCGGGCAACAUUCCGAGGGGACCGUCCCCUCGGUAAUGGCGAAUGGGACCCA, 0.232; in that of GGCCGGCAUGGUCCCAGCCUCCUCGCUGGCGCCGGCUGGGCAACAUUCCGAGGUGACCGUCCCCACGGUAAUGGCGAAUGGGACCCA, 0.513.
In the case of GGCCGGCAUGGUCCCAGCCUCCUCGCUGGCGCCGGCUGGGCAACAUUCCGUGGGGACCGUCCCCUCGGUAAUGGCGAAUGGGACACA, the self-cleavage worked out at 0.956.
As to GGCCGGCGUGGUCCCAGCCUCCUCGCUGGCGCCGGCUGGGCAACAUUCCGAGGGGACCGUCCCCUCGGUAAUGGCGAAUGGUACCCA, the self-cleavage was 0.369.
For GGCCGGCAUGGUCCCAGCCUCCUCGCUGGCGUCGGCUGGGCUACAUUCCGAGGGGACCGUCCCCUCGGUAAUGGCGAAUGGGACCCA, the self-cleavage is 0.591.
Then GGCCGGCAUGGUCCCAGCCUCCUGGCUGGCGCCGGCUGGGCAACAUUCCGAGGGGACCGUCCCCUCGGGAAUGGCGAAUGGGACCCA, with 0.332; and GGCCGGCAUGGUCCCAGCCUCCUCGCUGGCGCCGGCUGGGCAACAUUCCGAUGGGACCGUCACCUCGGUAAUGGCGAAUGGGACCCA, with 0.822; and GGCCGGCAUGGUCCCAGCCUCCUCGCUGGCGCCGGCUGCGCAACAUUCCGAGGGGACCGUCACCUCGGUAAUGGCGAAUGGGACCCA, with 0.244.
Consider GGCCGGCAUGGUCCCAGCCUCCUCGCUGGCGCCGGCUGGGCAACAUUCCGAGGGGACCGUCCCCUCGGUAAUGGCGAAUUUGACCCA, for which the self-cleavage was determined as 0.191.
Then GGCCGGCAUGGUCCCAGCCUCCUCGCUGGGGCCGGCUGGGCAACAUUCCGCGGGGACCGUCCCCUCGGUAAUGGCGAAUGGGACCCA, with 0.142; and GGCCGGCAUGGUCCCAGCCUCCUCGCUGGCGCCGGCUGGGUAACAUUCCGAGGGGACCGUCCCCUCGGUAAUGGCGAAUGGGACCUA, with 0.967; and GGCCGGCAUGGUCCCAGCCUCCUCGCUGUCGCCGGCUAGGCAACAUUCCGAGGGGACCGUCCCCUCGGUAAUGGCGAAUGGGACCCA, with 0.0656.
As for GGCCGGCAUGGUCCCAGCCUCCUCGCUGGCGCCGGCUGGGCAACAUUCCGAGGGGACCCUCCCCUCGGCAAUGGCGAAUGGGACCCA, the self-cleavage is 1.23.
With GGCCGGCAUGGUCCCAGCCUCCUCGCUGGCGCCGGCUGGGAAACAUUCCGAGGGGACCGUCCCCUCGGUAAUGGCGAAUCGGACCCA, the self-cleavage turned out to be 0.164.
Then GGCCGGCAUGGUCCCAGCCUCCUCGCUGACGCCGGCUGGGCAACAUUCCGAGGGGACCGUCCCCUCGGUAAUGGCGAAUGGGACACA, with 0.17; and GGCCGGCAUGGUCCCAGCCUCCUCGCUGGCGCCGGCUGGGCAACAUUCCGAGGGGACCUUGCCCUCGGUAAUGGCGAAUGGGACCCA, with 1.2; and GGCCGGCAUGGUCCCAGCCUCCUCGCUGGCGCCGGCUGGGCAACAUUCCGAUGGGACCGUCCCCUCGGUAAUGGCGAAUGGGACCGA, with 1.01.
Then GGCCGGCAUGGUCCCAGCCUCUUCGCUGGCGCCGGCUGGGCAACAUUCCGAGGGGACCGUCCCCUCAGUAAUGGCGAAUGGGACCCA, with 0.522; and GGCCGCCAUGGUCCCAGCCUCCUCGCUGGCGCCGGCUGGGCAACAUUCCGAGGGGACCGUCCCCUCGGUAAUGGCGGAUGGGACCCA, with 0.0791; and GGCCGGCAUGGUCCCAGCCUCCUCGCUGGCGCCGGCUGGGCAACAUUCCGAGGGGACCGUCGCCUCGGUAAUGGCGGAUGGGACCCA, with 0.745.
In the case of GGCCGGCAUGGUCCCAGCCUCCUCGCUGGCGCCGGCUGGGCAACAUGCCGAGGGGACCGUCUCCUCGGUAAUGGCGAAUGGGACCCA, the self-cleavage came out at 0.923.
Consider GUCCGUCAUGGUCCCAGCCUCCUCGCUGGCGCCGGCUGGGCAACAUUCCGAGGGGACCGUCCCCUCGGUAAUGGCGAAUGGGACCCA, for which the self-cleavage was determined as 0.0621.
With GGCCGGCAUGGUCCCAGCCUCCUCGCUGGCGCCGGCUGGGCAACAUUCCGAGGGGACCGUCCCCUCGGUGAUGGCGAUUGGGACCCA, the self-cleavage amounted to 0.151.
On to GGCCGGCAUGGUCCCAGCCUCCUCGCUGGCGCCCGCUGGGCCACAUUCCGAGGGGACCGUCCCCUCGGUAAUGGCGAAUGGGACCCA, for which the self-cleavage was 0.125.
As for GGCCGGCAUGGUCCCAGCCUCCUCGCUGGUGCCGGCUGGGCAACAUUCCGAGGGGACCGUCCCCUCGGUUAUGGCGAAUGGGACCCA, the self-cleavage was determined as 0.782.
Then GGCCGGCAUGGUCCCAGCCUCCUCGCUGGCGCCGGCUGGGCAAUAUUCCGAGGGGACCGUCCCCUCGGUGAUGGCGAAUGGGACCCA, with 0.793.
